Experimental data published in US20210253709A1 (SUZHOU SMARTNUCLIDE BIOPHARMACEUTICAL, published 2021).
Blank lines part the entries; values can stand above or below the binder they belong to.

Experiments:
PDL1-Fc fusion protein [1] = biological target: T1, PDL1-Fc fusion protein (human, UniProt Q9NZQ7 19-238, limits assumed); test: ELISA, plate coated with PDL1-Fc 0.5 ug/well, detection anti-his-HRP, OD405, 4-parameter fit (Plot1; same fit values as in Figure 2)
T1 construct: Transiently expressed in HEK293 and used as the plate coat in the ELISAs; not shown: Fc part
Method: (§1) The PDL1-Fc fusion protein was transiently expressed by HEK293 and purified by nickel column affinity chromatography. […] After washing, the anti-his horseradish peroxidase labeled antibody was added and incubated at room temperature for 1 hour. After washing, the developing solution was added, and the absorption value was read at wavelength of 405 nm. Application software SotfMaxPro v5.4 is used for data processing and mapping analysis.

PDL1-Fc fusion protein [2] = biological target: T1, PDL1-Fc fusion protein; test: ELISA, plate coated with PDL1-Fc 0.5 ug/well, detection anti-his-HRP, OD405, 4-parameter fit (Plot2)
Method: as §1

[3] = biological target: PD-L1 target protein (Biacore ligand) (UniProt Q9NZQ7 19-238, limits assumed); test: SPR (Biacore T200), 25 C, 109 as analyte at 3.125-200 ng/ml
Method: The experimental temperature of Biacore was 25° C. and the injection flow rate was 50 μl/min. The analyte was diluted with the HBS-EP+ buffer to a certain concentration, and was allowed to flow through the blank reference channel and the activated channel in turn. The signal value generated on the blank reference channel reflects the non-specific adsorption of the analyte on the chip, and the signal value generated on the activated channel reflects the specific binding between the analyte and the ligand. The analyte was introduced for 300 s, and then the HBS-EP+ buffer was introduced for 180 s to dissociate the analyte from the ligand. […] Different concentrations of analytes are repeatedly introduced and dissociated.

Chain of PD-L1 target protein (Biacore ligand) (Q9NZQ7 19-238 limits assumed): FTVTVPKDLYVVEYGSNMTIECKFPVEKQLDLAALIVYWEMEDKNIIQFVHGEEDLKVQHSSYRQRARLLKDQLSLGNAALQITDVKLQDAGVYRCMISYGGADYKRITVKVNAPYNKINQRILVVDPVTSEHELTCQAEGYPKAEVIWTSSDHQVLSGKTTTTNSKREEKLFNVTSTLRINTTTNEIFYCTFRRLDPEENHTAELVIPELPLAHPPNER
T1 sequence (Q9NZQ7 19-238 limits assumed): as above

- EC50 (PDL1-Fc fusion protein [1]): 2.89 ng/mL
B1: 109-chis (VHH)
VHH: QVQLQESGGGSVQAGGSLRLSCTASGFSLDDSDMGWYRQARGNVCQLVSTIASDRSTYYTPSVKGRFTISHDRAKNTIYLQMNSLKPEDTAVYYCAAAPRLAYTTAMTCEGDFAYWGQGTQVTVSS

- EC50 (PDL1-Fc fusion protein [2]): 3.62 ng/mL
B2: ^69,71Ga-NOTA-109-chis (VHH)
VHH: QVQLQESGGGSVQAGGSLRLSCTASGFSLDDSDMGWYRQARGNVCQLVSTIASDRSTYYTPSVKGRFTISHDRAKNTIYLQMNSLKPEDTAVYYCAAAPRLAYTTAMTCEGDFAYWGQGTQVTVSS
modifications: one or two NOTA groups (from p-SCN-Bn-NOTA) conjugated per molecule, each chelating ^69,71Ga; conjugated lysines not assigned
notes: also called chelated products of PD-L1 single domain antibody protein

- Kd [3]: 1.73 nM
- koff [3]: 0.000438 s⁻¹
- kon [3]: 253000 M⁻¹ s⁻¹
B3: 109 heavy-chain single domain antibody (VHH)
VHH: QVQLQESGGGSVQAGGSLRLSCTASGFSLDDSDMGWYRQARGNVCQLVSTIASDRSTYYTPSVKGRFTISHDRAKNTIYLQMNSLKPEDTAVYYCAAAPRLAYTTAMTCEGDFAYWGQGTQVTVSS
notes: Untagged form
